Measured values from paper PMC6267192.

Molecular target: TLR2 (human (endogenous in BEAS-2B)) (UniProt O60603)
UniProt O60603, sequence (O60603 21-784): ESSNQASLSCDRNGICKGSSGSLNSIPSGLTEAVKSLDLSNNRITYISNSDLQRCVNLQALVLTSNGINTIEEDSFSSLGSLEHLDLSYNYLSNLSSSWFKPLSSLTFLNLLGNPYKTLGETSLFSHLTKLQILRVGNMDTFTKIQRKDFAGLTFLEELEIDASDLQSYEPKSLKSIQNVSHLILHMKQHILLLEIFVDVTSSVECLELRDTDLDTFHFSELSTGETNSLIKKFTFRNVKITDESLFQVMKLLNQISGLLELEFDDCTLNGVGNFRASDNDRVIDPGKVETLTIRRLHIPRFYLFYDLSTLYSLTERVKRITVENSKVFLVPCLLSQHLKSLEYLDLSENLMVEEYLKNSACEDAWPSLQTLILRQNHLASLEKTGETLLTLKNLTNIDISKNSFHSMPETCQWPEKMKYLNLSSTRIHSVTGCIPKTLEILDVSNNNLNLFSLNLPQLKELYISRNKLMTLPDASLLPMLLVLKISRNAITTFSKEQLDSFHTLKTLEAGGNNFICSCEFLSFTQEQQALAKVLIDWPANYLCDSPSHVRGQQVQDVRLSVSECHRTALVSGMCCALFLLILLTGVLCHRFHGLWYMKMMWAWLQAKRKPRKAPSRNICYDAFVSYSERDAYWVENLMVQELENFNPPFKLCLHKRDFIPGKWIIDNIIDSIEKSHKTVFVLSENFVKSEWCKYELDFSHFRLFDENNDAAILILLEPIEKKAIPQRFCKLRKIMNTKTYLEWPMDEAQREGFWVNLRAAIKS

IL-8 release from BEAS-2B cells, allergen at 25 µg/mL, 24 hours | Substance
157 pg/mL | Der p 2.0110 S47W (natural protein)
310 pg/mL | recombinant Der p 2 variant 2.0110 (from UniProt P49278 18-146) (natural protein)
